In patent US10000749B2, “Valencene synthase polypeptides, encoding nucleic acid molecules and uses thereof” (Evolva, Inc., priority 2013, dated 2018):
Entries after “also recorded” stand apart in the source; their conditions may differ.

Experiments:
ticks and mosquitoes = conditions: against ticks and mosquitoes; cited from earlier work
[1] = system: Saccharomyces cerevisiae strain ALX11-30; assay: Shake flask assay of cells expressing valencene synthase; format: cell-based; conditions: FIG. 7, cells expressing the synthase
Experimental: Seed cultures were started in 250 mL flasks by inoculating 15 mL of SD or SDE medium (for ALX11-30 and ALX7-95 strains, respectively) with freshly growing colonies of the 7 strains shown in Table 5 above. The cultures were grown for 24 hours, and 2.5 mL of each culture were used to inoculate 50 mL of fermentation medium (2% ammonium sulfate, 2% potassium phosphate, 0.1% NaCl, 0.6% MgSO4.7H2O, 0.4% yeast extract, 1 mL mineral solution [FeSO4.7H2O 0.028%, ZnSO4.7H2O 0.029%, CuSO4.5H2O 0.008%, Na2MoO4.2H2O 0.024%, CoCl2.6H2O 0.024%, MnSO4.H2O 0.017%, HCl 1 mL], 0.5 mL 50% glucose, 1.5 mL vitamin solution [biotin 0.001%, Ca-pantothenate 0.012%, inositol 0.06%, pyridoxine-HCl 0.012%, thiamine-HCl 0.012%], and 0.5 mL 10% CaCl2) in a 250 mL baffled flask. The cultures were grown at 28° C. After 16 hours of incubation, the cultures were fed 3.6 mL of 50% glucose and 0.667 mL of 12.5% yeast extract. […] An aliquot of the organic phase was analyzed by gas chromatography and the amount of valencene produced was quantified by calculating the area under the peak representing valencene. […]
Table 6a below provides product distribution profiles including the amount of valencene produced from the shake flask assay, as determined by gas chromatography, of CVS 277 compared to two strains that produce EGVS in the ALX11-30 strain (as described in Example 3).

[2] = Steady state kinetic analysis of His-tag purified valencene synthases; format: biochemical
Experimental: In this example, the activity of E. glaciale valencene synthase (EgVS; SEQ ID NO:1) and of the citrus valencene synthase designated V277 (SEQ ID NO:31) were evaluated by steady state kinetic analysis. To compare the activities of these enzymes in vitro, the valencene synthases were Histidine-tagged at the C-terminus, expressed in E. coli, purified by nickel chelate chromatography, and evaluated for activity by steady state kinetic analysis. […] T=30C. Detection: GC/MS-SIM.

C=C(C)[C@@H]1CCC2=CC(=O)C[C@@H](C)[C@]2(C)C1 [nootkatone, 4,4a,5,6,7,8-hexahydro-6-isopropenyl-4,4-a-dimethyl-2(3H)-naphthalenone]
Repellent and insecticide effect (ticks and mosquitoes): effective repellent and insecticide

B1: EgVS: Eryngium glaciale valencene synthase, amino acid sequence SEQ ID NO:1; His-tagged at the C-terminus for kinetics (protein)
chain: MSLNVLSTSGSAPTTKSSEITRRSANYHPSLWGDKFLEYSSPDHLKNDSFTEKKHEQLKEEVKKMLVETVQKPQQQLNLINEIQRLGLSYLFEPEIEAALQEISVTYDEFCCSTDADDLHNVALSFRILREHGHNVSSDVFQKFMDSNGKLKDYLVNDARGLLSLYEATHFRVHNDDKLEELLSVTTSRLEHLKSHVKYPLEDEISRALKHPLHKELNRLGARYYISIYEKFDSHNKLLLEFAKLDFNRLQKMYQHELAHLTRWWKDLDFTNKLPFARDRIVEGYFWILGMYFEPERKDVREFLNRVFALITVVDDTYDVYGTFKELLLFTDAIERWGTSDLDQLPGYMRIIYQALMDVYNQMEEKLSMKADCPTYRLEFAIETVKAMFRSYLEEARWSKEHYIPSMEEYMTVALVSVGYKTILTNSFVGMGDIATREVFEWVFNSPLIIRASDLIARLGDDIGGHEEEQKKGDAATAIECYIKENHVTKHEAYDEFQKQIDNAWKDLNKEALRPFPVPMTFITRVVHFTRAIHVIYADFSDGYTRSDKAIRGYITSLLVDPIPL
modifications: C-terminal His tag; Eryngium glaciale; valencene synthase protein
notes: His-tagged at the C-terminus for kinetics
Valencene production in yeast compared to the CVS synthase ([1]; listed as EG synthase): more than twice the amount of valencene
Valencene production in yeast compared to the CVS synthase ([1]; listed as EVS): significantly greater
Turnover compared with valencene synthase V277 [2]: turned over significantly more times
Total and specific activity compared with valencene synthase V277 ([2]; side-by-side comparison, FIG. 6): dramatically higher total and specific activity; also recorded: exhibits greater activity
